Residue numbers refer to the chain shown, from its start. One block for each binder: values may come before it.
Experiments:
[1] = biological target: T1, recombinant CD3D&E protein (human CD3-his tag) (human, UniProt P04234 22-105; P07766 23-126, limits assumed); assay: SPR Biacore, Ab captured on Protein A;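 note: humanized antibodies on a Protein A chip, human CD3-his analyte flowed over in serial dilutions for 3 min, dissociation tracked 120–360 s on a Biacore T200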
T1 construct: Analyte in Biacore; also called CD3D&E-His; CD3d&ε-His
T1 sequence (P04234 22-105 limits assumed, chain 1 of 2): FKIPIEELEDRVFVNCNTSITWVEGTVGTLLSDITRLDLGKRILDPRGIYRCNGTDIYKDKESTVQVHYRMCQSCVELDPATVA
T1 sequence (P07766 23-126 limits assumed, chain 2 of 2): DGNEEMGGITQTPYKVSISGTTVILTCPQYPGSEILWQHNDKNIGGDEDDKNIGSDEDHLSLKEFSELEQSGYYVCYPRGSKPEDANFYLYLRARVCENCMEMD

[2] = biological target: T2, human CD3 on cells (human PBMC; Jurkat TCR/CD3 NFAT reporter cells) (human, UniProt P07766 23-207; P04234 22-171; P09693 23-182); assay: cell-based or functional assay
T2 sequence (P07766 23-207, chain 1 of 3): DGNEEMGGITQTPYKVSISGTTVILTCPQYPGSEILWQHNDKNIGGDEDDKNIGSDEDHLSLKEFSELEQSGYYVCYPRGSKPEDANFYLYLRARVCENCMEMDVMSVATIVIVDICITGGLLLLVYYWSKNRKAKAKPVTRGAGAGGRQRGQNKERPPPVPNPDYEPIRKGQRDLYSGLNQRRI
T2 sequence (P04234 22-171, chain 2 of 3): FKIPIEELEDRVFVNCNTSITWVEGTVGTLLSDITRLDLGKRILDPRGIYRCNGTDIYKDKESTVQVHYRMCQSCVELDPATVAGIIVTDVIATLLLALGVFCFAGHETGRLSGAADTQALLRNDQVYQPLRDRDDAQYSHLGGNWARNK
T2 sequence (P09693 23-182, chain 3 of 3): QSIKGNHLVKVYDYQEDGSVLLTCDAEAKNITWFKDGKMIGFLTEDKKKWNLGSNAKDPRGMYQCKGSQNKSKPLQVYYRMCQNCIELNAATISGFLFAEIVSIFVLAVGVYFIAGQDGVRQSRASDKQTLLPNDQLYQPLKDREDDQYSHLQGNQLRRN

[3] = biological target: T3, human CD3 protein (human, UniProt P07766 23-126; P04234 22-105); assay: ELISA, plate-coated CD3;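 note: binding to plate-immobilized human CD3 protein, bound antibody detected with peroxidase-labelled anti-human IgG and TMB, read as absorbance at 450 nm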
T3 construct: ELISA coating protein; also called Human CD3D & CD3E Heterodimer Protein
T3 sequence (P07766 23-126 limits assumed, chain 1 of 2): as the sequence (P07766 23-126 limits assumed, chain 2 of 2) above
T3 sequence (P04234 22-105 limits assumed, chain 2 of 2): as the sequence (P04234 22-105 limits assumed, chain 1 of 2) above

[4] = biological target: T2, human CD3 on cells (human PBMC; Jurkat …); assay: cell-based or functional assay; remark: listed apart in the source

B1: Hu192A7B9-10 (antibody, V domains shown)
VH: EVQLQESGPGLVKPSETLSLTCTVSGGSISSYNVHWVRQPPGKGLEWMGRMRYNGDTSYNSALKSRLTISRDTSKNQFSLKLSSVTAADTAVYYCTRGPRGGYYSALFDYWGQGTMVTVSS
VL: DIQMTQSPSSLSASVGDRVTITCKASQNINRYLNWYQQKPGKAPKLLISIANSLQTGVPSRFSGSGSGTDFTLTISSLQPEDFATYYCLQHNSWYTFGQGTKLEIK
notes: humanized mAb
Kd [1]: 122 nM | koff [1]: 0.0144 s⁻¹ | kon [1]: 118000 M⁻¹ s⁻¹ | CD3-NFAT Activity by CD3 mAb [2]: > 50 % SP34 | EC50 [3]: 5.08 ng/mL

B5: Hu192A7B9-5 (antibody, V domains shown)
VH: B1 VH with G27F, F78V
VL: B1 VL with S49Y
notes: humanized mAb
Kd [1]: 103 nM | koff [1]: 0.0119 s⁻¹ | kon [1]: 116000 M⁻¹ s⁻¹ | CD3-NFAT Activity by CD3 mAb [2]: > 50 % SP34 | EC50 [3]: 5.52 ng/mL

B6: Hu153A6B1-3 (antibody, V domains shown)
VH: B1 VH with V34I, M51I, T96A, R100Y, Y103S, Y104R, S105E, A106P
VL: B1 VL with A25T, R31K, S49Y, I50T, A51T, S53N, N92G, W94G
notes: humanized mAb
% of SP34 [4]: 45.5% | Emax [4]: 2660 | Kd [1]: 59.5 nM | koff [1]: 0.0241 s⁻¹ | kon [1]: 406000 M⁻¹ s⁻¹ | CD3-NFAT Activity by CD3 mAb [2]: ≤ 50 % SP34 | EC50 [3]: 3.87 ng/mL

B10: Hu153A6B1-2 (antibody, V domains shown)
VH: B1 VH with V34I, M48I, M51I, L67V, T96A, R100Y, Y103S, Y104R, S105E, A106P
VL: B1 VL with A25T, R31K, S49Y, I50T, A51T, S53N, N92G, W94G
notes: humanized mAb
% of SP34 [4]: 42.6% | Emax [4]: 2500 | Kd [1]: 50 nM | koff [1]: 0.0201 s⁻¹ | kon [1]: 402000 M⁻¹ s⁻¹ | CD3-NFAT Activity by CD3 mAb [2]: ≤ 50 % SP34 | EC50 [3]: 3.39 ng/mL

B12: Hu192A7B9-8 (antibody, V domains shown)
VH: B1 VH with M48I, L67V, T96A
VL: B1 VL
notes: humanized mAb
Kd [1]: 58.9 nM | koff [1]: 0.0475 s⁻¹ | kon [1]: 805000 M⁻¹ s⁻¹ | CD3-NFAT Activity by CD3 mAb [2]: > 50 % SP34 | EC50 [3]: 6.42 ng/mL

B14: Hu192A7B9-9 (antibody, V domains shown)
VH: B1 VH with T96A
VL: B1 VL
notes: humanized mAb
Kd [1]: 92.7 nM | koff [1]: 0.0204 s⁻¹ | kon [1]: 220000 M⁻¹ s⁻¹ | CD3-NFAT Activity by CD3 mAb [2]: > 50 % SP34 | EC50 [3]: 5.58 ng/mL

B15: Hu153A6B1-1 (antibody, V domains shown)
VH: EVQLQESGPGLVKPSETLSLTCTVSGGSISSYNIHWIRQPPGKGLEWIGRIRYNGDTSYNSALKSRVTISVDTSKNQFSLKLSSVTAADTAVYYCARGPYGGSREPLFDYWGQGTMVTVSS
VL: B1 VL with A25T, R31K, S49Y, I50T, A51T, S53N, N92G, W94G
notes: humanized mAb
% of SP34 [4]: 19.8% | Emax [4]: 1160 | Kd [1]: 8.81 nM | koff [1]: 0.00391 s⁻¹ | kon [1]: 444000 M⁻¹ s⁻¹ | CD3-NFAT Activity by CD3 mAb [2]: ≤ 50 % SP34 | EC50 [3]: 16.3 ng/mL

Next, values leading:

Kd [1]: 60.3 nM | koff [1]: 0.00561 s⁻¹ | kon [1]: 93100 M⁻¹ s⁻¹ | CD3-NFAT Activity by CD3 mAb [2]: > 50 % SP34 | EC50 [3]: 5.15 ng/mL
B2: Hu192A7B9-20 (antibody, V domains shown)
VH: B1 VH with M48I, L67V, T96A
VL: B1 VL with L46V, V58I, Y87F
notes: humanized mAb

Kd [1]: 9.21 nM | koff [1]: 0.000594 s⁻¹ | kon [1]: 64500 M⁻¹ s⁻¹ | CD3-NFAT Activity by CD3 mAb [2]: > 50 % SP34 | EC50 [3]: 20.2 ng/mL
B3: Hu192A7B9-24 (antibody, V domains shown)
VH: B1 VH with G27F, I29L, S30T, F78V
VL: B1 VL with L46V, V58I, Y87F
notes: humanized mAb

Kd [1]: 34.5 nM | koff [1]: 0.00543 s⁻¹ | kon [1]: 157000 M⁻¹ s⁻¹ | CD3-NFAT Activity by CD3 mAb [2]: > 50 % SP34 | EC50 [3]: 4.98 ng/mL
B4: Hu192A7B9-19 (antibody, V domains shown)
VH: B1 VH with V37I, M48I, L67V, R71V, T96A
VL: B1 VL with L46V, V58I, Y87F
notes: humanized mAb

Kd [1]: 55.1 nM | koff [1]: 0.00499 s⁻¹ | kon [1]: 90600 M⁻¹ s⁻¹ | CD3-NFAT Activity by CD3 mAb [2]: > 50 % SP34 | EC50 [3]: 5.46 ng/mL
B7: Hu192A7B9-21 (antibody, V domains shown)
VH: B1 VH with T96A
VL: B1 VL with L46V, V58I, Y87F
notes: humanized mAb

Kd [1]: 86.7 nM | koff [1]: 0.0179 s⁻¹ | kon [1]: 206000 M⁻¹ s⁻¹ | CD3-NFAT Activity by CD3 mAb [2]: > 50 % SP34 | EC50 [3]: 5.02 ng/mL
B8: Hu192A7B9-14 (antibody, V domains shown)
VH: B1 VH with M48I, L67V, T96A
VL: B1 VL with V58I
notes: humanized mAb

Kd [1]: 40.9 nM | koff [1]: 0.00741 s⁻¹ | kon [1]: 181000 M⁻¹ s⁻¹ | CD3-NFAT Activity by CD3 mAb [2]: > 50 % SP34 | EC50 [3]: 28.8 ng/mL
B9: Hu192A7B9-15 (antibody, V domains shown)
VH: B1 VH with T96A
VL: B1 VL with V58I
notes: humanized mAb

Kd [1]: 77.7 nM | koff [1]: 0.00449 s⁻¹ | kon [1]: 57800 M⁻¹ s⁻¹ | CD3-NFAT Activity by CD3 mAb [2]: > 50 % SP34 | EC50 [3]: 7.95 ng/mL
B11: Hu192A7B9-11 (antibody, V domains shown)
VH: B1 VH with G27F, F78V
VL: B1 VL
notes: humanized mAb

Kd [1]: 64.8 nM | koff [1]: 0.00532 s⁻¹ | kon [1]: 82200 M⁻¹ s⁻¹ | CD3-NFAT Activity by CD3 mAb [2]: > 50 % SP34 | EC50 [3]: 4.46 ng/mL
B13: Hu192A7B9-17 (antibody, V domains shown)
VH: B1 VH with G27F, F78V
VL: B1 VL with V58I
notes: humanized mAb

— US20240417469A1 (CONCEPT TO MEDICINE BIOTECH, published 2024)
